Experimental findings from patent US20150274807A1 (SUZHOU ALPHAMAB, published 2015) are described below.

First the molecules themselves.
B6: Fc protein K392D/K409D/D399K (other)
chain: GSGGGDKTHTCPPCPAPELLGGPSVFLFPPKPKDTLMISRTPEVTCVVVDVSHENPEVKFNWYVDGVEVHNAKTKPREEQYNSTYRVVSVLTVLHQDWLNGKEYKCKVSNKALPAPIEKTISKAKGQPREPQVYTLPPSREEMTKNQVSLTCLVKGFYPSDIAVEWESNGQPENNYDTTPPVLKSDGSFFLYSDLTVDKSRWQQGNVFSCSVMHEALHNHYTQKSLSLSPGK
notes: Monomer chain; EU numbering is K392D/K409D/D399K; also called Fc-mix1; Fc of mutation combinations 1, 5 and 6

Data set [1] concerns the molecule itself. The data set can be described thus: co-transfection 1:1 in 293H, protein A pull-down, non-reducing SDS-PAGE densitometry; co-expressed with ScFv-Fc WT. As for the experimental part:
(§1) The expression vectors harbor 8 mutation combinations in step 3 were separately transfected with PEI into suspension adapted 293H cells (ATCC CRL-1573), the co-transfection ratio of plasmids pcDNA3.1-zeo-ScFv-Fc to pcMVβ-SP-Fc was 1:1, and after 3-4 days, cell culture supernatant was collected. Immuno precipitation was performed with protein A agarose resin, and the content of the homodimer proteins or antibodies (ScFv-Fc/ScFv-Fc and Fc/Fc) and the heterodimer protein or antibody (ScFv-Fc/Fc) was detected by SDS-PAGE under non-reducing conditions. Gel-Pro professional image analysis software (Media Cybernetics company) was used for analyzing the proportion of the homodimer proteins or antibodies (ScFv-Fc/ScFv-Fc and Fc/Fc) and the heterodimer protein or antibody (ScFv-Fc/Fc). […] In addition, when E357K/K370E/K392D/K409D/D399K (mutation combination 4) was introduced on Fc, the stability should be further investigated because of the appearance of Fc monomers (about 6%).

Data set [2] concerns the molecule itself. Put plainly: co-transfection 1:1 in 293H, protein A pull-down, non-reducing SDS-PAGE densitometry; co-expressed with Fc K392D/K409D/D399K. As for the experimental part: as §1
In data set [3] the target is B6. The data set can be described thus: co-transfection 1:1 in 293H, protein A pull-down, non-reducing SDS-PAGE densitometry. As for the experimental part:
as §1

B1: Fc protein E357K/K370E (other)
chain: GSGGGDKTHTCPPCPAPELLGGPSVFLFPPKPKDTLMISRTPEVTCVVVDVSHENPEVKFNWYVDGVEVHNAKTKPREEQYNSTYRVVSVLTVLHQDWLNGKEYKCKVSNKALPAPIEKTISKAKGQPREPQVYTLPPSREKMTKNQVSLTCLVEGFYPSDIAVEWESNGQPENNYKTTPPVLDSDGSFFLYSKLTVDKSRWQQGNVFSCSVMHEALHNHYTQKSLSLSPGK
notes: Monomer chain; also called Fc of mutation combination 3
As to B1, the “proportion of Fc homodimer on SDS-PAGE” value in data set [1] was determined as 47.5%.

B2: Fc protein K392D/D399K (other)
chain: GSGGGDKTHTCPPCPAPELLGGPSVFLFPPKPKDTLMISRTPEVTCVVVDVSHENPEVKFNWYVDGVEVHNAKTKPREEQYNSTYRVVSVLTVLHQDWLNGKEYKCKVSNKALPAPIEKTISKAKGQPREPQVYTLPPSREEMTKNQVSLTCLVKGFYPSDIAVEWESNGQPENNYDTTPPVLKSDGSFFLYSKLTVDKSRWQQGNVFSCSVMHEALHNHYTQKSLSLSPGK
notes: Monomer chain; also called Fc of mutation combination 7
Take B2: the “proportion of Fc homodimer on SDS-PAGE” value in data set [1] turned out to be 44.7%.

B3: Fc protein E357K/K370E/K392D/K409D/D399K (other)
chain: GSGGGDKTHTCPPCPAPELLGGPSVFLFPPKPKDTLMISRTPEVTCVVVDVSHENPEVKFNWYVDGVEVHNAKTKPREEQYNSTYRVVSVLTVLHQDWLNGKEYKCKVSNKALPAPIEKTISKAKGQPREPQVYTLPPSREKMTKNQVSLTCLVEGFYPSDIAVEWESNGQPENNYDTTPPVLKSDGSFFLYSDLTVDKSRWQQGNVFSCSVMHEALHNHYTQKSLSLSPGK
notes: Monomer chain; also called Fc-mix13; Fc of mutation combination 4
Consider B3, for which the “proportion of Fc homodimer on SDS-PAGE” value in data set [1] amounted to 28.7%.

B4: Fc protein D399K/K409D (other)
chain: GSGGGDKTHTCPPCPAPELLGGPSVFLFPPKPKDTLMISRTPEVTCVVVDVSHENPEVKFNWYVDGVEVHNAKTKPREEQYNSTYRVVSVLTVLHQDWLNGKEYKCKVSNKALPAPIEKTISKAKGQPREPQVYTLPPSREEMTKNQVSLTCLVKGFYPSDIAVEWESNGQPENNYKTTPPVLKSDGSFFLYSDLTVDKSRWQQGNVFSCSVMHEALHNHYTQKSLSLSPGK
notes: Monomer chain; also called Fc of mutation combination 8
On to B4, for which, in data set [1], the “proportion of Fc homodimer on SDS-PAGE” value turned out to be 43.4%.

B5: Fc protein E356K/K439E (other)
chain: GSGGGDKTHTCPPCPAPELLGGPSVFLFPPKPKDTLMISRTPEVTCVVVDVSHENPEVKFNWYVDGVEVHNAKTKPREEQYNSTYRVVSVLTVLHQDWLNGKEYKCKVSNKALPAPIEKTISKAKGQPREPQVYTLPPSRKEMTKNQVSLTCLVKGFYPSDIAVEWESNGQPENNYKTTPPVLDSDGSFFLYSKLTVDKSRWQQGNVFSCSVMHEALHNHYTQESLSLSPGK
notes: Monomer chain; also called Fc of mutation combination 2
B5: in data set [1], the “proportion of Fc homodimer on SDS-PAGE” value is 41.1%. On the same count and under the same terms, in the case of B6 it was 51.3%.

B7: ScFv-Fc protein E356K/K439E (Fc fusion)
chain: EVQLLESGGGVVQPGRSLRLSCIASGFTFSSYPMTWVRQAPGKGLEWVASISYDGSYKYKADSMKGRLTISRDNSKNTLYLEMNSLTAEDTAVYYCARTAFFNAYDFWGQGTLVTVSSASTKGPSVGGGGSGGGGSEIVMTQSPATLSVSPGERATLSCRASQSVRSNLAWYQQKPGQAPRLLIYAASTRATGIPARFSGSGSGTEFTLTISSLQSEDFAVYYCQQYNEWFRTSGQGTKVEIKRDKTHTCPPCPAPELLGGPSVFLFPPKPKDTLMISRTPEVTCVVVDVSHENPEVKFNWYVDGVEVHNAKTKPREEQYNSTYRVVSVLTVLHQDWLNGKEYKCKVSNKALPAPIEKTISKAKGQPREPQVYTLPPSRKEMTKNQVSLTCLVKGFYPSDIAVEWESNGQPENNYKTTPPVLDSDGSFFLYSKLTVDKSRWQQGNVFSCSVMHEALHNHYTQESLSLSPGK
notes: Monomer chain; also called scFv-Fcmix1; ScFv-Fc of mutation combination 6
As for B7, the “proportion of ScFv-Fc homodimer on SDS-PAGE” value in data set [2] was 31.2%. Moreover, the “proportion of ScFv-Fc/Fc heterodimer on SDS-PAGE” value in data set [3] is 8.4%.

B8: ScFv-Fc protein E357K/K370E (Fc fusion)
chain: EVQLLESGGGVVQPGRSLRLSCIASGFTFSSYPMTWVRQAPGKGLEWVASISYDGSYKYKADSMKGRLTISRDNSKNTLYLEMNSLTAEDTAVYYCARTAFFNAYDFWGQGTLVTVSSASTKGPSVGGGGSGGGGSEIVMTQSPATLSVSPGERATLSCRASQSVRSNLAWYQQKPGQAPRLLIYAASTRATGIPARFSGSGSGTEFTLTISSLQSEDFAVYYCQQYNEWFRTSGQGTKVEIKRDKTHTCPPCPAPELLGGPSVFLFPPKPKDTLMISRTPEVTCVVVDVSHENPEVKFNWYVDGVEVHNAKTKPREEQYNSTYRVVSVLTVLHQDWLNGKEYKCKVSNKALPAPIEKTISKAKGQPREPQVYTLPPSREKMTKNQVSLTCLVEGFYPSDIAVEWESNGQPENNYKTTPPVLDSDGSFFLYSKLTVDKSRWQQGNVFSCSVMHEALHNHYTQKSLSLSPGK
notes: Monomer chain; also called ScFv-Fc of mutation combination 5
Turning to B8, in data set [2], the “proportion of ScFv-Fc homodimer on SDS-PAGE” value was 41.5%. The “proportion of ScFv-Fc/Fc heterodimer on SDS-PAGE” value in data set [3] was determined as 5.9%.
